Among the data in the supplement of paper PMC10567573 are protein stability index values, retold here.

B1: IFRG15 (parent)
chain: INRADYCPECYPDNPANRSLVLPW
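Also: lentivirally expressed fusions sorted by FACS into six bins by GFP to DsRed ratio, PSI derived from sequencing read proportions per bin multiplied by bin number.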

Variants of B1 are the subject of the series. The series is described as follows: protein stability index of a GFP-peptide fusion (GPS, HEK-293T) (PSI 1-6); higher = more stable. Particulars: c terminus: a fixed tail appended.
Turning to INRADYCPECYPDNPANRSLVDPW, the protein stability index came out at 2.15. The result for INRADYCPECYPDNPANRSLVTPW reads 2.31; that for INRADYCPECYPDNPANRSLVAPW, 2.69. For INRADYCPECYPDNPANRSLVVPW, the protein stability index was found to be 3. Consider INRADYCPECYPDNPANRSLVCPW, for which the protein stability index was found to be 2.12. The result for INRADYCPECYPDNPANRSLVYPW reads 2.17; that for INRADYCPECYPDNPANRSLVWPW, 1.65; that for INRADYCPECYPDNPANRSLVPPW, 2.93.

As to INRADYCPECYPDNPANRSLVGPW, the protein stability index was 2.37. With INRADYCPECYPDNPANRSLVIPW, the protein stability index is 1.72. In the case of INRADYCPECYPDNPANRSLVFPW, the protein stability index was 2.05.

Take INRADYCPECYPDNPANRSLVEPW: the protein stability index was determined as 2.44. The result for INRADYCPECYPDNPANRSLVSPW reads 1.93; that for INRADYCPECYPDNPANRSLVRPW, 2.36.

Consider INRADYCPECYPDNPANRSLVMPW, for which the protein stability index was determined as 2.37. Take INRADYCPECYPDNPANRSLVKPW: the protein stability index was 2.04. The result for INRADYCPECYPDNPANRSLVNPW reads 2.65; that for INRADYCPECYPDNPANRSLVQPW, 2.35; that for INRADYCPECYPDNPANRSLVHPW, 1.49. The result for INRADYCPECYPDNPANRSLGLPW reads 2.69; that for INRADYCPECYPDNPANRSLALPW, 2.54; that for INRADYCPECYPDNPANRSLFLPW, 1.54. The result for INRADYCPECYPDNPANRSLSLPW reads 1.97. INRADYCPECYPDNPANRSLHLPW: the protein stability index worked out at 1.84.

With INRADYCPECYPDNPANRSLDLPW, the protein stability index amounted to 2.43. As to INRADYCPECYPDNPANRSLWLPW, the protein stability index is 1.29. Take INRADYCPECYPDNPANRSLYLPW: the protein stability index turned out to be 1.99. The result for INRADYCPECYPDNPANRSLTLPW reads 2.43; that for INRADYCPECYPDNPANRSLKLPW, 1.98. Regarding INRADYCPECYPDNPANRSLLLPW, the protein stability index is 2.53. Consider INRADYCPECYPDNPANRSLRLPW, for which the protein stability index came out at 1.83. The result for INRADYCPECYPDNPANRSLPLPW reads 2.92; that for INRADYCPECYPDNPANRSLMLPW, 2.29; that for INRADYCPECYPDNPANRSLELPW, 2.29.

As for INRADYCPECYPDNPANRSLCLPW, the protein stability index was 1.82. Consider INRADYCPECYPDNPANRSLILPW, for which the protein stability index worked out at 1.97. The result for INRADYCPECYPDNPANRSLQLPW reads 2.12; that for INRADYCPECYPDNPANRSLNLPW, 2.3. For the variant INRADYCPECYPDNPARRSLVLPW, the protein stability index turned out to be 1.51. INRADYCPECYPDNPAGRSLVLPW: the protein stability index worked out at 2.53. The result for INRADYCPECYPDNPAWRSLVLPW reads 1.6. Consider INRADYCPECYPDNPAPRSLVLPW, for which the protein stability index turned out to be 1.89. The result for INRADYCPECYPDNPAIRSLVLPW reads 2.25. For the variant INRADYCPECYPDNPAERSLVLPW, the protein stability index turned out to be 2.14. As for INRADYCPECYPDNPATRSLVLPW, the protein stability index worked out at 2.53.

In the case of INRADYCPECYPDNPAQRSLVLPW, the protein stability index is 1.79. The result for INRADYCPECYPDNPAYRSLVLPW reads 1.74; that for INRADYCPECYPDNPASRSLVLPW, 2.21. INRADYCPECYPDNPAFRSLVLPW: the protein stability index was determined as 1.54. For the variant INRADYCPECYPDNPAVRSLVLPW, the protein stability index was 1.79.

In the case of INRADYCPECYPDNPAHRSLVLPW, the protein stability index is 2.04. The result for INRADYCPECYPDNPAKRSLVLPW reads 1.8; that for INRADYCPECYPDNPAMRSLVLPW, 1.91. As to INRADYCPECYPDNPALRSLVLPW, the protein stability index was 1.68. For the variant INRADYCPECYPDNPANRQLVLPW, the protein stability index turned out to be 2.

As for INRADYCPECYPDNPANRTLVLPW, the protein stability index was found to be 1.77. On to INRADYCPECYPDNPANRYLVLPW, for which the protein stability index is 1.88. For INRADYCPECYPDNPANRGLVLPW, the protein stability index was 1.82.

For the variant INRADYCPECYPDNPANRALVLPW, the protein stability index was determined as 2.16.

In the case of INRADYCPECYPDNPANRCLVLPW, the protein stability index stood at 1.81. Take INRADYCPECYPDNPANRHLVLPW: the protein stability index stood at 2.07. Turning to INRADYCPECYPDNPANRVLVLPW, the protein stability index amounted to 1.41.

On to INRADYCPECYPDNPANRFLVLPW, for which the protein stability index came out at 1.27. As for INRADYCPECYPDNPANRDLVLPW, the protein stability index is 2.3.

INRADYCPECYPDNPANRKLVLPW: the protein stability index was 2.14. For the variant INRADYCPECYPDNPANRRLVLPW, the protein stability index came to 1.59.

Take INRADYCPECYPDNPANRMLVLPW: the protein stability index stood at 1.65. As for INRADYCPECYPDNPANRILVLPW, the protein stability index was found to be 1.72. For INRADYCPECYPDNPANRPLVLPW, the protein stability index came out at 2.4.

Turning to INRADYCPECYPDNPANRNLVLPW, the protein stability index was found to be 1.8. For the variant INRADYCPECYPDNPANRLLVLPW, the protein stability index came out at 2.16. INRADYCPECYPDNPANRWLVLPW: the protein stability index turned out to be 1.99.

Consider INRADYCPECYPDNPANRELVLPW, for which the protein stability index is 2.22. Consider INRADYCPECYPDNPANRSLVLPS, for which the protein stability index was 2.9. With INRADYCPECYPDNPANRSLVLPP, the protein stability index came out at 2.62.

For INRADYCPECYPDNPANRSLVLPG, the protein stability index worked out at 2.69. For the variant INRADYCPECYPDNPANRSLVLPL, the protein stability index came to 1.8. On to INRADYCPECYPDNPANRSLVLPM, for which the protein stability index turned out to be 2.23.

INRADYCPECYPDNPANRSLVLPY: the protein stability index was found to be 2.12. For the variant INRADYCPECYPDNPANRSLVLPV, the protein stability index came to 2.53. Turning to INRADYCPECYPDNPANRSLVLPD, the protein stability index was found to be 3.89.

Turning to INRADYCPECYPDNPANRSLVLPH, the protein stability index was found to be 2.37. As for INRADYCPECYPDNPANRSLVLPK, the protein stability index stood at 2.28.

In the case of INRADYCPECYPDNPANRSLVLPR, the protein stability index was determined as 1.77.

On to INRADYCPECYPDNPANRSLVLPQ, for which the protein stability index stood at 2.24. Take INRADYCPECYPDNPANRSLVLPF: the protein stability index is 2.3. Take INRADYCPECYPDNPANRSLVLPI: the protein stability index came out at 1.9. Turning to INRADYCPECYPDNPANRSLVLPE, the protein stability index stood at 2.99.

Turning to INRADYCPECYPDNPANRSLVLPT, the protein stability index came to 2.3.

As for INRADYCPECYPDNPANRSLVLPA, the protein stability index was 2.19. Turning to INRADYCPECYPDNPANRSLVLPN, the protein stability index was determined as 2.46.

Take INRADYCPECYPDNPANRSLVLPC: the protein stability index stood at 2.31. The result for INRADYCPECYPDNPANKSLVLPW reads 2.83.

Consider INRADYCPECYPDNPANYSLVLPW, for which the protein stability index turned out to be 1.44.
